Data taken from article doi:10.1101/2025.08.25.672096 (bioRxiv, 2025).

T1: GST::KIF14(901-1648) (UniProt Q15058 901-1648)
T1 sequence (looked up): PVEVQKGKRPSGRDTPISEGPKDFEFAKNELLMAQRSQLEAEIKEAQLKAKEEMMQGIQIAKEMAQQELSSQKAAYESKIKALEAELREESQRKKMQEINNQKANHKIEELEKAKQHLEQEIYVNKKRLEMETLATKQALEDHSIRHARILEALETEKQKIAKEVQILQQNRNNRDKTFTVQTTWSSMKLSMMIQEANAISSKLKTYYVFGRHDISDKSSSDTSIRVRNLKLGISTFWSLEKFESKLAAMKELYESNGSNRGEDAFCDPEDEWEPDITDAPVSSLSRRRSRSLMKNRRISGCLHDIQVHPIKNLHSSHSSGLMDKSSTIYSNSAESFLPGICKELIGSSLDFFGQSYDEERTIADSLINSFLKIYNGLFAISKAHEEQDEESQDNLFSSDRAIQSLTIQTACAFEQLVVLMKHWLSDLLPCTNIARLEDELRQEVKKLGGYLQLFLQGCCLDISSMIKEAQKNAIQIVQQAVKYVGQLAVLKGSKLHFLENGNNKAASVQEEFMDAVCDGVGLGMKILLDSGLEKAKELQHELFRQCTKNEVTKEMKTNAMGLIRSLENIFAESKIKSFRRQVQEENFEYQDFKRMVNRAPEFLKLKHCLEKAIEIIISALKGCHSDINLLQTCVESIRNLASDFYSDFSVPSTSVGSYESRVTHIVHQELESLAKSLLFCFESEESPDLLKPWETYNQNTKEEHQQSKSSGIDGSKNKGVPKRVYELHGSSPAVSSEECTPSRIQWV

B1: MBP::CIT-K(420-585) (domain or fragment, human, UniProt O14578-4 420-585, looked up)
chain: SYSKALGILGRSESVVSGLDSPAKTSSMEKKLLIKSKELQDSQDKCHKMEQEMTRLHRRVSEVEAVLSQKEVELKASETQRSLLEQDLATYITECSSLKRSLEQARMEVSQEDDKALQLLHDIREQSRKLQEIKEQEYQAQVEEMRLMMNQLEEDLVSARRRSDLY
B2: MBP::CIT-K(420-585) phosphorylated in vitro by CDK1-cyclin B (pS440) (domain or fragment, human, UniProt O14578-4 420-585, looked up)
chain: SYSKALGILGRSESVVSGLDSPAKTSSMEKKLLIKSKELQDSQDKCHKMEQEMTRLHRRVSEVEAVLSQKEVELKASETQRSLLEQDLATYITECSSLKRSLEQARMEVSQEDDKALQLLHDIREQSRKLQEIKEQEYQAQVEEMRLMMNQLEEDLVSARRRSDLY
modifications: phosphoserine at 440 (detected with the CIT-K pS440 antibody)

Molecular target: T1, GST::KIF14(901-1648)
Experiment: pull-down

| Binder | binding result |
| --- | --- |
| B1 | binds |
| B2 | binds |
